The results in this text go back to publication PMC2229597.

Where two headings read alike, the source gives them in different places. Some results are limits rather than exact numbers.

In test [1] the target is CNGA2 mutant channel 2-D316C (UniProt Q00195).
The target in test [2] is CNGA2 mutant channel 2-Y321C modified with MTSET (UniProt Q00195).
In test [3] the target is CNGA2 mutant channel 2-Y321C modified with MTSES (UniProt Q00195).
Test [4] addresses CNGA3 mutant channel 3-N361D (UniProt Q29441).
The target in test [5] is CNGA3 double mutant channel 3-N361D/R366Y (UniProt Q29441).
Test [6] has as its target CNGA3 mutant channel 3-R366Y (UniProt Q29441).
Test [7] deals with heteromeric CNG channel containing CNGA2 and CNGA4 (UniProt Q00195). Briefly: patch-clamp electrophysiology. (In patch-clamp work, channel activity is measured electrically.)
Test [8] concerns the target homomeric CNG channel composed of olfactory CNGA2 (UniProt Q00195). Briefly: patch-clamp electrophysiology.
The target in test [9] is CNGA2 mutant channel 2-E325K (UniProt Q00195). Briefly: patch-clamp electrophysiology.
For test [10], the target named is CNGA2 mutant channel 2-T308S (UniProt Q00195). As to the kind of experiment: patch-clamp electrophysiology.
In test [11] the target is CNGA2 mutant channel 2-S301F (UniProt Q00195). Briefly: patch-clamp electrophysiology.
Test [12] deals with CNGA2 mutant channel 2-D316N (UniProt Q00195).
Test [13] deals with CNGA2 mutant channel 2-Y321R (UniProt Q00195).
The target in test [14] is homomeric CNG channel composed of olfactory CNGA2 (UniProt Q00195). As to the kind of experiment: patch-clamp electrophysiology. The source holds these as a separate data set.
For test [15] the target is unchanged. Briefly: patch-clamp electrophysiology. This is another data set of the same source.

What is called Kd is the free concentration of one partner at which half of the binding sites on the other are occupied at equilibrium, for simple one-to-one binding. A low value points to a tighter complex. Broadly, the Ki is a dissociation constant, usually derived from enzyme kinetics or from competition with a known ligand. Lower therefore signals tighter binding. In the case of Pseudechetoxin (natural protein), the block of current by 500 nM PsTx, outside-out patches from oocytes in test [1] was determined as 33%. Moreover, in test [2], the block of current by 500 nM PsTx after modification of the patch with MTSET came out at 81%. In addition, the block of current by 500 nM PsTx after modification of the patch with MTSES in test [3] worked out at 93%. The same substance displayed an inhibition of current by 500 nM PsTx, outside-out patches from oocytes (n = 9) in test [4] of 15%. This substance yielded an inhibition of current by 500 nM PsTx, outside-out patches from oocytes (n = 4) in test [5] of 84%. The substance also returned an inhibition of current by 500 nM PsTx, outside-out patches from oocytes in test [6] of 2%. Also, in test [7], the Kd was 0.1 µM. Moreover, the Ki in test [8] worked out at 0.032 µM; in test [9], 0.123 µM; in test [10], 0.016 µM; in [11], 0.016 µM; in test [14] it was 0.18 µM; in [15] it was 0.024 µM. This substance also had a time constant of wash-off (dissociation) in test [8] of 67 s. The inhibition of current by 500 nM PsTx at −60 mV, outside-out patches from oocytes in [12] and in [13] was < 5% in each case.
